# Assay results taken from the supplement of paper PMC6757056.
# ± gives the standard deviation of the averaged measurements.
# B1: library; a variant is named by its letters at N, in order (parent)
# chain: GCUGUCACCGGUGUAUUACCCUAGUGGUCGACCGGUCUGAUGAGUCUNNNNNNAGACGAAACAGC
# Legend:
# hypoxanthine [1] = variants of: B1; test: normalized RNA/DNA level with ligand (relative to sTRSVctl = 100) (log10 (% of sTRSVctl)); ligand: hypoxanthine (xanthine aptamer); higher = less ribozyme self-cleavage, higher mRNA level; conditions: ligand concentration (+) RNA-Seq: 5 mM, HEK293T, reporter: mCherry (pCS4076), ligand present: yes
# Outline: (§1)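 For each 6-well well, 4 µg of library plasmid encoding mCherry-linked ribozyme switches, or eGFP-linked ones in some ligand experiments, was transfected into HEK293T. Any ligand was added 1 h before transfection, and RNA was extracted with EDTA 72 h after it, then reverse-transcribed, amplified, barcoded and sequenced. RNA level was obtained by dividing RNA reads by DNA reads, normalizing to a spiked-in non-cleaving sequence or to the top sequences, then scaling and log-transforming. The top set was 25 sequences, scaling was ×100 with log10, and ≥100 DNA reads were required.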
# hypoxanthine [2] = variants of: B1; test: normalized RNA/DNA level without ligand (relative to sTRSVctl = 100) (log10 (% of sTRSVctl)); ligand: hypoxanthine (xanthine aptamer); higher = less ribozyme self-cleavage, higher mRNA level; conditions: HEK293T, reporter: mCherry (pCS4076), ligand present: no
# Outline: as §1
Variant,normalized RNA/DNA level with ligand (log10) (hypoxanthine [1]),normalized RNA/DNA level without ligand (log10) (hypoxanthine [2])
GCUGUCACCGGUGUAUUACCCUAGUGGUCGACCGGUCUGAUGAGUCUAUAGGCAGACGAAACAGC,1.91 ± 0.025,1.776 ± 0.0031
GCUGUCACCGGUGUAUUACCCUAGUGGUCGACCGGUCUGAUGAGUCUCUAGCGAGACGAAACAGC,1.91 ± 0.068,1.824 ± 0.0032
GCUGUCACCGGUGUAUUACCCUAGUGGUCGACCGGUCUGAUGAGUCUCUAGCUAGACGAAACAGC,1.987 ± 0.0096,1.93 ± 0.042
GCUGUCACCGGUGUAUUACCCUAGUGGUCGACCGGUCUGAUGAGUCUUUAGGAAGACGAAACAGC,1.857 ± 0.012,1.66 ± 0.032
GCUGUCACCGGUGUAUUACCCUAGUGGUCGACCGGUCUGAUGAGUCUUUAGGUAGACGAAACAGC,1.92 ± 0.028,1.8 ± 0.031
GCUGUCACCGGUGUAUUACCCUAGUGGUCGACCGGUCUGAUGAGUCUAUAUCAAGACGAAACAGC,1.936 ± 0.0032,1.81 ± 0.021
GCUGUCACCGGUGUAUUACCCUAGUGGUCGACCGGUCUGAUGAGUCUAUAUCCAGACGAAACAGC,1.938 ± 0.015,1.876 ± 0.018
GCUGUCACCGGUGUAUUACCCUAGUGGUCGACCGGUCUGAUGAGUCUUUAUCCAGACGAAACAGC,1.957 ± 0.016,1.929 ± 0.013
GCUGUCACCGGUGUAUUACCCUAGUGGUCGACCGGUCUGAUGAGUCUUUAUCAAGACGAAACAGC,1.953 ± 0.0031,1.83 ± 0.024
GCUGUCACCGGUGUAUUACCCUAGUGGUCGACCGGUCUGAUGAGUCUAUAGUUAGACGAAACAGC,1.9009 ± 0.0014,1.84 ± 0.055
GCUGUCACCGGUGUAUUACCCUAGUGGUCGACCGGUCUGAUGAGUCUAUAGUCAGACGAAACAGC,1.931 ± 0.016,1.923 ± 0.019
GCUGUCACCGGUGUAUUACCCUAGUGGUCGACCGGUCUGAUGAGUCUGUAUAAAGACGAAACAGC,1.87 ± 0.052,1.78 ± 0.02
GCUGUCACCGGUGUAUUACCCUAGUGGUCGACCGGUCUGAUGAGUCUGUAUCGAGACGAAACAGC,1.9 ± 0.042,1.57 ± 0.017
GCUGUCACCGGUGUAUUACCCUAGUGGUCGACCGGUCUGAUGAGUCUGUAUCAAGACGAAACAGC,1.96 ± 0.049,1.88 ± 0.02
GCUGUCACCGGUGUAUUACCCUAGUGGUCGACCGGUCUGAUGAGUCUGUAUCCAGACGAAACAGC,1.96 ± 0.025,1.86 ± 0.043
GCUGUCACCGGUGUAUUACCCUAGUGGUCGACCGGUCUGAUGAGUCUUUAGCGAGACGAAACAGC,1.906 ± 0.018,1.8 ± 0.038
GCUGUCACCGGUGUAUUACCCUAGUGGUCGACCGGUCUGAUGAGUCUUUAGCUAGACGAAACAGC,1.97 ± 0.021,1.89 ± 0.023
GCUGUCACCGGUGUAUUACCCUAGUGGUCGACCGGUCUGAUGAGUCUCUAUAGAGACGAAACAGC,1.93 ± 0.019,1.69 ± 0.068
GCUGUCACCGGUGUAUUACCCUAGUGGUCGACCGGUCUGAUGAGUCUCUAUACAGACGAAACAGC,1.954 ± 0.014,1.835 ± 0.0098
GCUGUCACCGGUGUAUUACCCUAGUGGUCGACCGGUCUGAUGAGUCUCUAUAUAGACGAAACAGC,1.951 ± 0.014,1.81 ± 0.038
GCUGUCACCGGUGUAUUACCCUAGUGGUCGACCGGUCUGAUGAGUCUCUAUAAAGACGAAACAGC,1.9 ± 0.037,1.8 ± 0.0052
